# Experimental data: US20100221257A1 (AstraZeneca / MedImmune, published 2010)
# T1: human IL-1R1, endogenous on human cells (HeLa cells; whole blood) (human, UniProt P14778 18-569)
# T1 sequence (looked up): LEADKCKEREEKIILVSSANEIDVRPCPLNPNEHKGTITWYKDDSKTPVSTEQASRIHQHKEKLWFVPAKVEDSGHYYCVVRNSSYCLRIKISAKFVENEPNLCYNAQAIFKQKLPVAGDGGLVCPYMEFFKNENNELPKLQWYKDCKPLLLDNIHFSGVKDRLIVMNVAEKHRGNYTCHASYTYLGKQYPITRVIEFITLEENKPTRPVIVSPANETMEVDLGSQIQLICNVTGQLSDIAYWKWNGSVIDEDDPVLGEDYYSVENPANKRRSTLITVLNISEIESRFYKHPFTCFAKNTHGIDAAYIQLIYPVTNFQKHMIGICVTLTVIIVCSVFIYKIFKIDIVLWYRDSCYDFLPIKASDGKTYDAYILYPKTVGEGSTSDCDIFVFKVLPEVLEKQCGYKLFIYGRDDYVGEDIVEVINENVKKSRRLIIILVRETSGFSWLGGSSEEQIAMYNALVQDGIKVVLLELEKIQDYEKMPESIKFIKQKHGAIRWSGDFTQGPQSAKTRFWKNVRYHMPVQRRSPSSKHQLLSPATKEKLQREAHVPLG
# T2: cynomolgus IL-1R1, endogenous on CYNOM-K1 cells (cynomolgus monkey, UniProt A0A7N9CMI5 18-569)
# T2 sequence: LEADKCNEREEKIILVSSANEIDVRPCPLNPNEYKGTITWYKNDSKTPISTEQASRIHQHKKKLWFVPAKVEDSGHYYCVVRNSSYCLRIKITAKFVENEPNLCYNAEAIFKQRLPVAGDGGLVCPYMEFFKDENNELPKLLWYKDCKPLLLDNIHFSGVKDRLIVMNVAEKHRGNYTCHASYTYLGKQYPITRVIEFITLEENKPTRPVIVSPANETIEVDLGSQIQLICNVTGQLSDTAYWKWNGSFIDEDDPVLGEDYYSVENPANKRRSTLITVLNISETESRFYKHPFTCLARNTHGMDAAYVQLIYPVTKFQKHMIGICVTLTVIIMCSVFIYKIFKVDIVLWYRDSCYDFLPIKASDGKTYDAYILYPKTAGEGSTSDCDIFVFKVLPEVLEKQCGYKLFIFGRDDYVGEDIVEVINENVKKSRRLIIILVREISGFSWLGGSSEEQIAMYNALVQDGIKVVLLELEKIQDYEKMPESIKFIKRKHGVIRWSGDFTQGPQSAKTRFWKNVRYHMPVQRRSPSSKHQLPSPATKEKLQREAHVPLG
# Columns and labels:
# [1] = biological target: T1, human IL-1R1, endogenous on human cells …; experiment: cell-based or functional assay
# [2] = biological target: T3, human histidine tagged (HIS) IL1RFc fusion protein (human); experiment: HTRF receptor-ligand assay, IgG inhibiting HIS FLAG IL-1Ra binding to cryptate labelled human HIS IL1RFc
# T3 construct: Biotinylated or cryptate labelled in some assays; also called human HIS IL1RFc; huIL-1R1-Fc
# Experimental: The ability of lead antibodies to inhibit IL-1Ra to IL-1R1 was assessed in a receptor-ligand binding HTRF® (Homogeneous Time-Resolved Fluorescence) assay format for inhibition of HIS FLAG tagged human IL1Ra (In house, E. Coli expressed; HIS FLAG IL-1RA) binding to human histidine tagged (HIS) IL1RFc fusion protein (in house), as described in the Materials and methods section.
# A titration of inhibitor was used in order to establish the clone potency as measured by IC₅₀ values in the assay. All dilutions were carried out in assay buffer as for ligand binding assay above. 5 μl of a titration of inhibitor was added to a 384 well low volume assay plate (Costar 3676). This was then followed by addition of 0.4 nM cryptate labelled HIS IL1RFc. Assay plates were then sealed and incubated at room temperature in dark for 1 hour.
# [3] = biological target: T1, human IL-1R1, endogenous on human cells …; experiment: cell-based or functional assay; remark: listed apart in the source
# [4] = biological target: T2, cynomolgus IL-1R1, endogenous on …; experiment: cell-based or functional assay
# [5] = biological target: Antibody 6 (Eu3+ cryptate labelled, Example 5); experiment: HTRF competition: unlabelled test protein against biotin labelled human IL-1R1/Fc binding to cryptate labelled antibody
# Experimental: Antibody was cryptate labelled with Eu³′ Cryptate labelling kit according to the manufacturer's instructions (CisBio International Cat No. 62EUSPEA) and IL-1R1/Fc (SEQ ID NO: 134, see Material and Methods) was Biotin labelled with EZ Link Sulfo-NHS-Biotin (Perbio Cat No. 21335) according to the manufacturer's instructions. Assay conditions were 0.25 nM Cryptate labelled antibody, 0.3 nM biotin labelled IL-1R1/Fc, 2.5 nM streptavidin XL^{ent!} (CisBio International Cat. No. 611SAXLB) in 1×D-PBS, 0.1% BSA, 0.4M potassium fluoride in a total volume of […] in a 384 well shallow well costar plate (3676). To the assay a dilution series (from maximum of 100 nM to 0.0017 nM) of test proteins was added and the assay incubated for 3 hours at room temperature. FRET signal was detected using a PerkinElmer EnVision plate reader using a 320 nm excitation filter and 620 nm and 665 nm emission filters. Results were calculated from the 665/620 ratio as a percentage of specific binding (signal with no competitor antigen). Results were analysed with Prism (GraphPad Software) using the sigmoidal dose response model.
# Antibody binding of chimeric molecules was tested in an HTRF (Homogeneous Time Resolved Fluorescence) competition assay. Molecules which bound antibody at the same paratope as human IL-1R1 inhibited the binding interaction, leading to a reduction in signal. From inhibition curves IC₅₀ values for human IL-1R1, mouse IL-1R1 and chimeric molecules were calculated (Table 12). […] Chimeras that gave similar IC₅₀ values to native human IL-1R1 still contained the epitope.
# Chain of Antibody 6 (Eu3+ cryptate labelled, Example 5) (VH, as listed by the source, chain 1 of 2, one chain of several): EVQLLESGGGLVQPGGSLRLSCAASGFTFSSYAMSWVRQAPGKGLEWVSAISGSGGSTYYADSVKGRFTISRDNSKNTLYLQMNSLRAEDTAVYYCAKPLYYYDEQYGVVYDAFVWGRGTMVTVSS
Binder,IC50 [2],"IC50, inhibition of IL-1 beta induced IL-8 release in HeLa cells (IgG1) [3]",further results
"Antibody 1 IgG1 (antibody, V domains shown) VH: not shown VL: QAVLTQPSSASGTPGQRVTISCSGSSSNIGSNYVFWYQQFPGTAPQLLVKWNNQRPSGVPDRFSGSKSGTSASLAISGLRSEDEADYYCAAWDDSLSGLVFGGGTKLTVL",–,–,"IC50, inhibition of human IL-1β induced IL-8 release from HeLa cells [1]: 95.9 nM"
"Antibody 8 IgG1 (antibody, V domains shown, Non-germlined IgG1, lambda light chain) VH: not shown VL: QSVLTQPPSVSGAPGQRVTISCTGSSSNIGAGYDVHWYQQLPGTAPKLLIYGDTHRPSGVPDRFSGSKSGTSASLVIAGLQAEDEADYYCQSYDTHLVAHVFGGGTKLTVL",0.156 nM,0.0293 nM,–
"Antibody 9 IgG1 (antibody, V domains shown, Non-germlined IgG1, lambda light chain) VH: not shown VL: QSVLTQPPSVSGAPGQRVTISCTGSSSNIGAGYDVHWYQQLPGTAPKLLIYGDTHRPSGVPDRFSGSKSGTSASLVIAGLQAEDEADYYCQSYDTLLLAPQFGGGTKLTVL",0.156 nM,0.0115 nM,–
"Antibody 9GL IgG2 (antibody, V domains shown, Germlined IgG2, lambda light chain; also called 28Q1 GL) VH: not shown VL: QSVLTQPPSVSGAPGQRVTISCTGSSSNIGAGYDVHWYQQLPGTAPKLLIYGDTHRPSGVPDRFSGSKSGTSASLAITGLQAEDEADYYCQSYDTLLLAPQFGGGTKLTVL",0.208 nM,–,"IC50, inhibition of IL-1 alpha induced IL-8 release in HeLa cells (GL IgG2) [3]: 0.0162 nM; IC50, inhibition of IL-1 beta induced IL-8 release in HeLa cells (GL IgG2) [3]: 0.0069 nM; IC50, inhibition of IL-1β induced IL-8 release from CYNOM-K1 cells, experiment 1 [4]: 1.2 nM; IC50, inhibition of IL-1β induced IL-8 release from CYNOM-K1 cells, experiment 2 [4]: 1.1 nM"
"Antibody 4 IgG1 (antibody, V domains shown) VH: not shown VL: QSVLTQPPSVSGAPGQRVTISCTGSSSNIGAGYDVHWYQQLPGTAPKLLIYGDTHRPSGVPDRFSGSKSGTSASLVIAGLQAEDEADYYCQSYDTSLSGSLFGGGTKLTVL",–,–,"IC50, inhibition of human IL-1β induced IL-8 release from HeLa cells [1]: 22 nM"
"Antibody 2 IgG1 (antibody, V domains shown, Non-germlined IgG1, lambda light chain) VH: not shown VL: QAVLTQPSSASGTPGQRVTISCSGSSSNIGSNYVFWYQQFPGTAPQLLVKWNNQRPSGVPDRFSGSKSGTSASLAISGLRSEDEADYYCAAWDDHLEQLHFGGGTKLTVL",0.256 nM,0.0775 nM,–
"MoD3 HuD1-D2 IL1R1 (Fc fusion, human;mouse, UniProt P14778 18-227, looked up, not shown: a dimerising Fc or GST, range 1-227;range 231-338) LEADKCKEREEKIILVSSANEIDVRPCPLNPNEHKGTITWYKDDSKTPVSTEQASRIHQHKEKLWFVPAKVEDSGHYYCVVRNSSYCLRIKISAKFVENEPNLCYNAQAIFKQKLPVAGDGGLVCPYMEFFKNENNELPKLQWYKDCKPLLLDNIHFSGVKDRLIVMNVAEKHRGNYTCHASYTYLGKQYPITRVIEFITLEENKPTRPVILSPRNETIEADPGSMIQLICNVTGQFSDLVYWKWNGSEIEWNDPFLAEDYQFVEHPSTKRKYTLITTLNISEVKSQFYRYPFICVVKNTNIFESAHVQLIYPVPDFK",–,–,IC50 [5]: 0.147 nM
"MoD1b IL1R1 (Fc fusion, human;mouse, UniProt P14778 18-42, looked up, not shown: a dimerising Fc or GST, range 1-42;range 45-56;range 54-336) LEADKCKEREEKIILVSSANEIDVRKCPLTPNKMHGDTITWYKDDSKTPVSTEQASRIHQHKEKLWFVPAKVEDSGHYYCVVRNSSYCLRIKISAKFVENEPNLCYNAQAIFKQKLPVAGDGGLVCPYMEFFKNENNELPKLQWYKDCKPLLLDNIHFSGVKDRLIVMNVAEKHRGNYTCHASYTYLGKQYPITRVIEFITLEENKPTRPVIVSPANETMEVDLGSQIQLICNVTGQLSDIAYWKWNGSVIDEDDPVLGEDYYSVENPANKRRSTLITVLNISEIESRFYKHPFTCFAKNTHGIDAAYIQLIYPVTNFQK",–,–,IC50 [5]: 0.201 nM
"MoD3a2 IL1R1 (Fc fusion, human;mouse, UniProt P14778 18-272, looked up, not shown: a dimerising Fc or GST, range 1-272;range 276-292;range 290-336) LEADKCKEREEKIILVSSANEIDVRPCPLNPNEHKGTITWYKDDSKTPVSTEQASRIHQHKEKLWFVPAKVEDSGHYYCVVRNSSYCLRIKISAKFVENEPNLCYNAQAIFKQKLPVAGDGGLVCPYMEFFKNENNELPKLQWYKDCKPLLLDNIHFSGVKDRLIVMNVAEKHRGNYTCHASYTYLGKQYPITRVIEFITLEENKPTRPVIVSPANETMEVDLGSQIQLICNVTGQLSDIAYWKWNGSVIDEDDPFLAEDYQFVEHPSTKRKSTLITVLNISEIESRFYKHPFTCFAKNTHGIDAAYIQLIYPVTNFQK",–,–,IC50 [5]: 0.268 nM
"MoD3b IL1R1 (Fc fusion, human;mouse, UniProt P14778 18-309, looked up, not shown: a dimerising Fc or GST) LEADKCKEREEKIILVSSANEIDVRPCPLNPNEHKGTITWYKDDSKTPVSTEQASRIHQHKEKLWFVPAKVEDSGHYYCVVRNSSYCLRIKISAKFVENEPNLCYNAQAIFKQKLPVAGDGGLVCPYMEFFKNENNELPKLQWYKDCKPLLLDNIHFSGVKDRLIVMNVAEKHRGNYTCHASYTYLGKQYPITRVIEFITLEENKPTRPVIVSPANETMEVDLGSQIQLICNVTGQLSDIAYWKWNGSVIDEDDPVLGEDYYSVENPANKRRSTLITVLNISEIESRFYKHPFICVVKNTNIFESAHVQLIYPVTNFQK",–,–,IC50 [5]: 0.337 nM

# Second part, led by results:
IC50 [2],"IC50, inhibition of IL-1 beta induced IL-8 release in HeLa cells (IgG1) [3]",Binder,further results
0.1 nM,0.0078 nM,"Antibody 6 IgG1 (antibody, V domains shown, Non-germlined IgG1, lambda light chain) VH: not shown VL: QSVLTQPPSVSGAPGQRVTISCTGSSSNIGAGYDVHWYQQLPGTAPKLLIYGDTHRPSGVPDRFSGSKSGTSASLVIAGLQAEDEADYYCQSYDTVRLHHVFGGGTKLTVL",–
0.186 nM,0.032 nM,"Antibody 5 IgG1 (antibody, V domains shown, Non-germlined IgG1, lambda light chain) VH: not shown VL: QSVLTQPPSVSGAPGQRVTISCTGSSSNIGAGYDVHWYQQLPGTAPKLLIYGDTHRPSGVPDRFSGSKSGTSASLVIAGLQAEDEADYYCQSYDTAGGGHHFGGGTKLTVL",–
0.168 nM,0.0426 nM,"Antibody 7 IgG1 (antibody, V domains shown, Non-germlined IgG1, lambda light chain) VH: not shown VL: QSVLTQPPSVSGAPGQRVTISCTGSSSNIGAGYDVHWYQQLPGTAPKLLIYGDTHRPSGVPDRFSGSKSGTSASLVIAGLQAEDEADYYCQSYDTDAARHQFGGGTKLTVL",–
0.469 nM,0.0494 nM,"Antibody 3 IgG1 (antibody, V domains shown, Non-germlined IgG1, lambda light chain) VH: not shown VL: QAVLTQPSSASGTPGQRVTISCSGSSSNIGSNYVFWYQQFPGTAPQLLVKWNNQRPSGVPDRFSGSKSGTSASLAISGLRSEDEADYYCAAWDDAARVLLFGGGTKLTVL",–
